{"source": "paper PMC11969024", "about": "(2025)", "parents": {"B1": {"name": "peptide HD2 (from tick evasin EVA4) / CCL1 (biotinylated, synthetic) (parent complex)", "chain 1": "EEDDYTAYAPLTCYFT", "chain 2": "KSMQVPFSRCCFSFAEQEIPLRAILCYRNTSSICSNEGLIFKLKRGKEACALDTVGWVQRHRKMLRHCPSKRK"}}, "data": [{"variants_of": "B1", "values": [{"variant": "chain 1 D3Q", "enrichment": "-3.22 log2 (difference from the parental peptide)"}, {"variant": "chain 1 D3M", "enrichment": "-2.32 log2 (difference from the parental peptide)"}, {"variant": "chain 1 D3L", "enrichment": "-3.89 log2 (difference from the parental peptide)"}, {"variant": "chain 1 D3P", "enrichment": "-2.66 log2 (difference from the parental peptide)"}, {"variant": "chain 1 D3H", "enrichment": "-3.87 log2 (difference from the parental peptide)"}, {"variant": "chain 1 A7T", "enrichment": "-3.41 log2 (difference from the parental peptide)"}, {"variant": "chain 1 A7Q", "enrichment": "2.46 log2 (difference from the parental peptide)"}, {"variant": "chain 1 A7D", "enrichment": "0.378 log2 (difference from the parental peptide)"}, {"variant": "chain 1 A7P", "enrichment": "-0.46 log2 (difference from the parental peptide)"}, {"variant": "chain 1 A7V", "enrichment": "-4.61 log2 (difference from the parental peptide)"}, {"variant": "chain 1 A7Y", "enrichment": "-2.42 log2 (difference from the parental peptide)"}, {"variant": "chain 1 A7K", "enrichment": "2.4 log2 (difference from the parental peptide)"}, {"variant": "chain 1 A7S", "enrichment": "-0.477 log2 (difference from the parental peptide)"}, {"variant": "chain 1 Y14H", "enrichment": "-5.22 log2 (difference from the parental peptide)"}, {"variant": "chain 1 Y14S", "enrichment": "-6.58 log2 (difference from the parental peptide)"}, {"variant": "chain 1 Y14C", "enrichment": "-6.55 log2 (difference from the parental peptide)"}, {"variant": "chain 1 Y14A", "enrichment": "-7.68 log2 (difference from the parental peptide)"}, {"variant": "chain 1 F15R", "enrichment": "-0.358 log2 (difference from the parental peptide)"}, {"variant": "chain 1 F15Q", "enrichment": "0.462 log2 (difference from the parental peptide)"}, {"variant": "chain 1 F15M", "enrichment": "1.5 log2 (difference from the parental peptide)"}, {"variant": "chain 1 F15D", "enrichment": "-3.07 log2 (difference from the parental peptide)"}, {"variant": "chain 1 F15P", "enrichment": "-0.0179 log2 (difference from the parental peptide)"}, {"variant": "chain 1 F15G", "enrichment": "-3.15 log2 (difference from the parental peptide)"}, {"variant": "chain 1 F15I", "enrichment": "2.23 log2 (difference from the parental peptide)"}, {"variant": "chain 1 C13Q", "enrichment": "-7.02 log2 (difference from the parental peptide)"}, {"variant": "chain 1 C13F", "enrichment": "-7.86 log2 (difference from the parental peptide)"}, {"variant": "chain 1 C13M", "enrichment": "-7.16 log2 (difference from the parental peptide)"}, {"variant": "chain 1 C13W", "enrichment": "-8.88 log2 (difference from the parental peptide)"}, {"variant": "chain 1 T16D", "enrichment": "2.85 log2 (difference from the parental peptide)"}, {"variant": "chain 1 T16R", "enrichment": "-4.51 log2 (difference from the parental peptide)"}, {"variant": "chain 1 T16Y", "enrichment": "-0.704 log2 (difference from the parental peptide)"}, {"variant": "chain 1 Y5N", "enrichment": "-6.94 log2 (difference from the parental peptide)"}, {"variant": "chain 1 E2T", "enrichment": "-2.76 log2 (difference from the parental peptide)"}, {"variant": "chain 1 E2R", "enrichment": "-4.77 log2 (difference from the parental peptide)"}, {"variant": "chain 1 E2M", "enrichment": "-2.13 log2 (difference from the parental peptide)"}, {"variant": "chain 1 E2D", "enrichment": "1.47 log2 (difference from the parental peptide)"}, {"variant": "chain 1 E2P", "enrichment": "-5.28 log2 (difference from the parental peptide)"}, {"variant": "chain 1 E2W", "enrichment": "-0.836 log2 (difference from the parental peptide)"}, {"variant": "chain 1 E2N", "enrichment": "-2.76 log2 (difference from the parental peptide)"}, {"variant": "chain 1 D4M", "enrichment": "-5.27 log2 (difference from the parental peptide)"}, {"variant": "chain 1 D4E", "enrichment": "-2.17 log2 (difference from the parental peptide)"}, {"variant": "chain 1 L11H", "enrichment": "-1.29 log2 (difference from the parental peptide)"}, {"variant": "chain 1 L11M", "enrichment": "2.12 log2 (difference from the parental peptide)"}, {"variant": "chain 1 L11K", "enrichment": "-0.661 log2 (difference from the parental peptide)"}, {"variant": "chain 1 T12Q", "enrichment": "-2.05 log2 (difference from the parental peptide)"}, {"variant": "chain 1 T12H", "enrichment": "-0.868 log2 (difference from the parental peptide)"}, {"variant": "chain 1 T12L", "enrichment": "-0.228 log2 (difference from the parental peptide)"}, {"variant": "chain 1 T12F", "enrichment": "-1.45 log2 (difference from the parental peptide)"}, {"variant": "chain 1 T12D", "enrichment": "-0.0823 log2 (difference from the parental peptide)"}, {"variant": "chain 1 T12M", "enrichment": "-0.791 log2 (difference from the parental peptide)"}, {"variant": "chain 1 T12K", "enrichment": "-1.81 log2 (difference from the parental peptide)"}, {"variant": "chain 1 T6R", "enrichment": "-1.22 log2 (difference from the parental peptide)"}, {"variant": "chain 1 T6K", "enrichment": "-3.59 log2 (difference from the parental peptide)"}, {"variant": "chain 1 T6M", "enrichment": "-2.14 log2 (difference from the parental peptide)"}, {"variant": "chain 1 T6A", "enrichment": "2.46 log2 (difference from the parental peptide)"}, {"variant": "chain 1 T6S", "enrichment": "4.57 log2 (difference from the parental peptide)"}, {"variant": "chain 1 T6L", "enrichment": "-3.32 log2 (difference from the parental peptide)"}, {"variant": "chain 1 P10E", "enrichment": "-5.54 log2 (difference from the parental peptide)"}, {"variant": "chain 1 P10D", "enrichment": "-1.68 log2 (difference from the parental peptide)"}, {"variant": "chain 1 P10W", "enrichment": "-5.49 log2 (difference from the parental peptide)"}, {"variant": "chain 1 P10V", "enrichment": "-9.61 log2 (difference from the parental peptide)"}, {"variant": "chain 1 E1V", "enrichment": "-1.48 log2 (difference from the parental peptide)"}, {"variant": "chain 1 E1S", "enrichment": "-1.56 log2 (difference from the parental peptide)"}, {"variant": "chain 1 E1A", "enrichment": "-1.47 log2 (difference from the parental peptide)"}, {"variant": "chain 1 E1N", "enrichment": "-1.4 log2 (difference from the parental peptide)"}, {"variant": "chain 1 A9L", "enrichment": "-6.22 log2 (difference from the parental peptide)"}, {"variant": "chain 1 A9T", "enrichment": "-4.64 log2 (difference from the parental peptide)"}, {"variant": "chain 1 A9W", "enrichment": "-3 log2 (difference from the parental peptide)"}, {"variant": "chain 1 A9Q", "enrichment": "-0.52 log2 (difference from the parental peptide)"}, {"variant": "chain 1 A9G", "enrichment": "-5.92 log2 (difference from the parental peptide)"}, {"variant": "chain 1 A9N", "enrichment": "-5.08 log2 (difference from the parental peptide)"}, {"variant": "chain 1 A9R", "enrichment": "-5.43 log2 (difference from the parental peptide)"}, {"variant": "chain 1 A9P", "enrichment": "-5.04 log2 (difference from the parental peptide)"}, {"variant": "chain 1 A9V", "enrichment": "-7.56 log2 (difference from the parental peptide)"}, {"variant": "chain 1 A9I", "enrichment": "-6.64 log2 (difference from the parental peptide)"}]}]}
